Experimental data: article PMC12002099, “Recombinant Production and Characterization of Six Ene‐reductases from Penicillium steckii” (Chembiochem, 2025)

Experiments:
PsOYE4 [1] = biological target: T1, PsOYE4 (Penicillium steckii, UniProt A0A1V6TQX2); test: steady-state kinetics, NADPH consumption, Michaelis-Menten fit; format: biochemical; conditions: co-substrate p-benzoquinone
T1 construct: gene PENSTE_c003G03501
From the text: steady-state kinetics, NADPH consumption, Michaelis-Menten fit on PsOYE4

PsOYE4 [2] = biological target: T1, PsOYE4; test: UV-Vis flavin spectrum of purified enzyme, FMN release on denaturation; format: binding; conditions: co-purified cofactor
PsOYE6 = biological target: T2, PsOYE6 (Penicillium steckii, UniProt A0A1V6SJW2); test: as above; format: binding; conditions: co-purified cofactor
T2 construct: gene PENSTE_c042G09698
T2 sequence (A0A1V6SJW2 1-370): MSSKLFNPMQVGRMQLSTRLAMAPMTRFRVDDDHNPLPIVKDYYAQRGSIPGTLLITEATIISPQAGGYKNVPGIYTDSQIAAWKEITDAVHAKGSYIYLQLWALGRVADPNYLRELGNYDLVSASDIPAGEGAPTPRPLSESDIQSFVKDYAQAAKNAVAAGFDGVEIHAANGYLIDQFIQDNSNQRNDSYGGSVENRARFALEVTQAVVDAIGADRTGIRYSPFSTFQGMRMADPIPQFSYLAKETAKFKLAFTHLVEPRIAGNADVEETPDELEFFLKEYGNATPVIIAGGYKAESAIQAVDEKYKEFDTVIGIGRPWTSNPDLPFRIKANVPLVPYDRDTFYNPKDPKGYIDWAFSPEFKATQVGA

PsOYE2 = biological target: T3, PsOYE2 (Penicillium steckii, UniProt A0A1V6SMJ6); test: X-ray crystal structure, […] Å; format: binding; conditions: co-purified cofactor; site completed by adjacent protomer
T3 construct: gene PENSTE_c029G02105; tag-free, His-SUMO fusion cut off, expressed in E. coli; homodimer; residues 2-413 seen, C-terminus 414-422 not visible
T3 sequence (A0A1V6SMJ6 1-422): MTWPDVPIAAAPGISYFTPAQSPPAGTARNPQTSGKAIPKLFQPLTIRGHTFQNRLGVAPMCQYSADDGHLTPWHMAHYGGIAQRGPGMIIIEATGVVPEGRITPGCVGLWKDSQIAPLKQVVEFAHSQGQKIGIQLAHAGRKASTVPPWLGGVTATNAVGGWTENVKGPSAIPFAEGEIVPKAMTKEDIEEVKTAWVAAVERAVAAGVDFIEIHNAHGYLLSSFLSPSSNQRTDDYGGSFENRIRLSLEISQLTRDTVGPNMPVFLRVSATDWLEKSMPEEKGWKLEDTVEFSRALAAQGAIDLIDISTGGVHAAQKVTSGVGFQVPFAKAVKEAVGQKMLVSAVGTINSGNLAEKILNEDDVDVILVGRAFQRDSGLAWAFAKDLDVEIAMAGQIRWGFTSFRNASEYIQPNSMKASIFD

PsOYE3 = biological target: T4, PsOYE3 (Penicillium steckii, UniProt A0A1V6SNM3); test: UV-Vis flavin spectrum of purified enzyme, FMN release on denaturation; format: binding; conditions: co-purified cofactor
T4 construct: gene PENSTE_c027G02138
T4 sequence (A0A1V6SNM3 1-421): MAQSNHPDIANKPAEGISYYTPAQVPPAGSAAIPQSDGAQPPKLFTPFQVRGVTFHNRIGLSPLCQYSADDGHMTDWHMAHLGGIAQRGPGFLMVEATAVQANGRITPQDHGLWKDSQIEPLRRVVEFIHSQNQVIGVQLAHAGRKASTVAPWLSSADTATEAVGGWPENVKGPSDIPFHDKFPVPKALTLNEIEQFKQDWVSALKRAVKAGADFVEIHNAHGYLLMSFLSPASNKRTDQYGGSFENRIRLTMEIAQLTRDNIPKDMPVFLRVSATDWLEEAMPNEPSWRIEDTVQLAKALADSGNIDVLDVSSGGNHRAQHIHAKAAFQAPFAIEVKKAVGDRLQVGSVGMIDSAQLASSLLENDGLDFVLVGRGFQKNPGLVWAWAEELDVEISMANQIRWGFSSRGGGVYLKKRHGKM

PsOYE1 = biological target: T5, PsOYE1 (Penicillium steckii, UniProt A0A1V6T993); test: as above; format: binding; conditions: co-purified cofactor
T5 construct: gene PENSTE_c009G01003
T5 sequence (A0A1V6T993 1-408): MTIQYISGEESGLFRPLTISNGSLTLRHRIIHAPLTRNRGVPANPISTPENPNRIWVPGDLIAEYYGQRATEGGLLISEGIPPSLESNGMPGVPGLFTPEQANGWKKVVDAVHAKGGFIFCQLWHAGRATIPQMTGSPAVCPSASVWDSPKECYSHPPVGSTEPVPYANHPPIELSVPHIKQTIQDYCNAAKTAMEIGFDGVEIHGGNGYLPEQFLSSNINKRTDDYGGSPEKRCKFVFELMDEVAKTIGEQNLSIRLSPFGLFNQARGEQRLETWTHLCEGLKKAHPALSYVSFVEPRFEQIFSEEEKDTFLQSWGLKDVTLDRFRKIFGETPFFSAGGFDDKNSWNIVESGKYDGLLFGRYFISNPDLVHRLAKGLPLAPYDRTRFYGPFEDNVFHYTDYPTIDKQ

[3] = biological target: PsOYE2, Class III OYE-type ene-reductase from Penicillium steckii (Penicillium steckii); test: crystal structure; PsOYE2 without any tag, FMN bound; monoclinic space group P2(1), four dimers in the asymmetric unit; 2.3 Å; interface analysed with PISA
[4] = biological target: PsOYE2, Class III OYE-type ene-reductase from Penicillium steckii (Penicillium steckii); test: SEC; PsOYE2 in solution; conditions not shown
[5] = biological target: PsOYE2, Class III OYE-type ene-reductase from Penicillium steckii (Penicillium steckii); test: DLS; PsOYE2 in solution; conditions not shown
[6] = substrate: O=C1C=CC(=O)C=C1; test: steady-state kinetics, NADPH consumption, Michaelis-Menten fit; format: biochemical, Penicillium steckii; conditions: co-substrate NADPH
From the text: (§1) steady-state kinetics, NADPH consumption, Michaelis-Menten fit on PsOYE2

[7] = substrate: NC(=O)C1=CN([C@@H]2O[C@H](COP(=O)(O)OP(=O)(O)OC[C@H]3O[C@@H](n4cnc5c(N)ncnc54)[C@H](OP(=O)(O)O)[C@@H]3O)[C@@H](O)[C@H]2O)C=CC1; test: as above; format: biochemical, Penicillium steckii; conditions: co-substrate p-benzoquinone
From the text: as §1

For `NC(=O)C1=CN([C@@H]2O[C@H](COP(=O)(O)OP(=O)(O)OC[C@H]3O[C@@H](n4cnc5c(N)ncnc54)[C@H](OP(=O)(O)O)[C@@H]3O)[C@@H](O)[C@H]2O)C=CC1` [NADPH], the Km (PsOYE4 [1]) was 300 ± 100 µM.

With `Cc1cc2nc3c(=O)[nH]c(=O)nc-3n(C[C@H](O)[C@H](O)[C@H](O)COP(=O)(O)O)c2cc1C` [FMN] the “UV-Vis flavin spectrum of purified enzyme, FMN release on denaturation” value (“UV-Vis flavin spectrum” below) (PsOYE4 [2]) was “Expression and subsequent purification led to reasonably high yields of pure, soluble, and FMN‐bound proteins”, the “UV-Vis flavin spectrum” value (PsOYE6) was “Expression and subsequent purification led to reasonably high yields of pure, soluble, and FMN‐bound proteins” and the “X-ray crystal structure, 2.3 Å” value (PsOYE2) was “The FMN cofactor, situated on the C‐terminal side of the barrel, has interactions”. The “UV-Vis flavin spectrum” value (PsOYE3) was “Expression and subsequent purification led to reasonably high yields of pure, soluble, and FMN‐bound proteins” and the “UV-Vis flavin spectrum” value (PsOYE1) was “Expression and subsequent purification led to reasonably high yields of pure, soluble, and FMN‐bound proteins”.

“PsOYE2, Class III OYE-type ene-reductase from Penicillium steckii (enzyme)” was tested, and the stoichiometry N [3] was 2, the stoichiometry N [4] was 2 and the stoichiometry N [5] was 2.

B1: PsOYE2 (Penicillium steckii) (protein)
chain: MTWPDVPIAAAPGISYFTPAQSPPAGTARNPQTSGKAIPKLFQPLTIRGHTFQNRLGVAPMCQYSADDGHLTPWHMAHYGGIAQRGPGMIIIEATGVVPEGRITPGCVGLWKDSQIAPLKQVVEFAHSQGQKIGIQLAHAGRKASTVPPWLGGVTATNAVGGWTENVKGPSAIPFAEGEIVPKAMTKEDIEEVKTAWVAAVERAVAAGVDFIEIHNAHGYLLSSFLSPSSNQRTDDYGGSFENRIRLSLEISQLTRDTVGPNMPVFLRVSATDWLEKSMPEEKGWKLEDTVEFSRALAAQGAIDLIDISTGGVHAAQKVTSGVGFQVPFAKAVKEAVGQKMLVSAVGTINSGNLAEKILNEDDVDVILVGRAFQRDSGLAWAFAKDLDVEIAMAGQIRWGFTSFRNASEYIQPNSMKASIFD
B1 gave a Km [6] of 2 ± 1 µM, a Km [7] of 500 ± 100 µM and a kcat [7] of 70 ± 10 s⁻¹. The kcat/Km [7] was 140000 M⁻¹ s⁻¹.
